Assay results as given in paper PMC7145699, “Structural insights into target DNA recognition by R2R3-MYB transcription factors”.
Where a chain is given by its changes, count along the chain named.

Legend:
Test in all cases: ITC; ITC: 150 mM NaCl, 20 mM HEPES pH 7.5, 25 C, 400 uM protein into 20 uM DNA; EMSA: 150 mM NaCl, 20 mM Tris-HCl pH 8.0, on ice 1 h, 0.1 uM DNA, 6% native PAGE 0.5x TBE
Settings in all cases: protein: recombinant; tags: 6xHis-SUMO removed by Ulp1; blunt
[1] = molecular target: T1, WER L59A (Arabidopsis, UniProt Q9SEI0 12-130, L59A)
T1 sequence: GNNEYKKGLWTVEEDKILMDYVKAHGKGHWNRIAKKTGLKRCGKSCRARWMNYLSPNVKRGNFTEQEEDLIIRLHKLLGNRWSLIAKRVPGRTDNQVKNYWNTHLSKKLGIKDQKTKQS

[2] = molecular target: T2, WER K55A (Arabidopsis, UniProt Q9SEI0 12-130, K55A)
T2 sequence: T1 sequence with K44A, A48L

[3] = molecular target: T3, WER L59E (Arabidopsis, UniProt Q9SEI0 12-130, L59E)
T3 sequence: T1 sequence with A48E

[4] = molecular target: T3, WER L59E; remark: listed apart in the source

B1: T12:A11* (dsDNA)
DNA 1: AAATTCTCCAATCGCATTTTC
DNA 2: GAAAATGCGATTGGAGAATTT
binding result [1]: binds

B2: A12:T11* (dsDNA)
DNA 1: AAATTCTCCAAACGCATTTTC
DNA 2: GAAAATGCGTTTGGAGAATTT
binding result [1]: binds

B3: G12:C11* (dsDNA)
DNA 1: AAATTCTCCAAGCGCATTTTC
DNA 2: GAAAATGCGCTTGGAGAATTT
binding result [1]: binds

B4: GL2 promoter WER target DNA (dsDNA)
DNA 1: AAATTCTCCAACCGCATTTTC
DNA 2: GAAAATGCGGTTGGAGAATTT
binding signal [2]: > 40 fold decrease in affinity vs WT | Kd [3]: 47.8 nM | Kd [1]: 47 nM

B5: 5mC12 DNA (AA5mC) (dsDNA)
DNA 1: AAATTCTCCAACCGCATTTTC
DNA 2: GAAAATGCGGTTGGAGAATTT
modifications: 5mC at C12 of strand 1
binding signal [4]: ~4 fold decrease in affinity vs N1 | binding result [1]: binds
